# Measurements published in article PMC9634968.
# B1: CXCR4: N15A (protein)
# parent chain: MSIPLPLLQIYTSDNYTEEMGSGDYDSMKEPCFREENANFNKIFLPTIYSIIFLTGIVGNGLVILVMGYQKKLRSMTDKYRLHLSVADLLFVITLPFWAVDAVANWYFGNFLCKAVHVIYTVNLYSSVLILAFISLDRYLAIVHATNSQRPRKLLAEKVVYVGVWIPALLLTIPDFIFANVSEADDRYICDRFYPNDLWVVVFQFQHIMVGLILPGIVILSCYCIIISKLSHSKGHQKRKALKTTVILILAFFACWLPYYIGISIDSFILLEIIKQGCEFENTVHKWISITEALAFFHCCLNPILYAFLGAKFKTSAQHALTSVSRGSSLKILSKGKRGGHSSVSTESESSSFHSS
# B2: CXCR4: N15A/N180A (protein)
# parent chain: B1 parent chain
# B3: CXCR4: N180A (protein)
# parent chain: B1 parent chain
# Test: Western blot after 125 nM CXCL12, 30 min, HEK 293T
# Details: glycan lost; control: wild type
row,Protein,degradation_or_half_life
1,B1,increases
2,B2,increases
3,B3,no change
